Experiment: soluble on expression in E. coli; label from the status in PepcDB or PDB records

Sequence | soluble on expression in E. coli
MTTQTIKFHMKPETFKQNAAISLQDKPLRKSLRTAMDMLMTKRKAVLTDEEELQSLRDLCEHVRQRSLSKLPALLEQLEENLTKLGVKVHWAETPTEACQIIHDIITAKNGKLMVKGKSMVSEEIELNHYLEAKGIKAVESDLGEFIVQMAGEKPTHIVMPAIHKTKEQVSELFHQNLGTPLTDDVDQLTGFARKALRDIYSTADVGLSGVNFAVAETGTLCLVENEGNGRLSTTVPPVHIAITGIEKVVAKLSDIPPLYSLLPRSAIGQNITTYFNMITGPRRSEELDGPQEMHLVLLDNGRSQAYAEDQMRRTLQCIRCGACMNHCPVYTRIGGAAYGTTYPGPIGEIISPHLLGLDATRDLPTACTMCGACVEVCPVRIPITEQMQRLRVEAQRSPTETVPHPIRGQGASHTFGEQMAWRTFNGIFSGSKTYRAFGWAATKFRNLTPRKQLGWTQNRVPMKPAKKTLHELMAEKMRQKEQA | not soluble
ASEKLRSKLMSADEAAQFVNHGDKVGFSGFTGAGYPKALPTAIANRAKEAHGAGNDYAIDLFTGASTAPDCDGVLAEADAIRWRMPYASDPIMRNKINSGSMGYSDIHLSHSGQQVEEGFFGQLNVAVIEITRITEEGYIIPSSSVGNNVEWLNAAEKVILEVNSWQSEDLEGMHDIWSVPALPNRIAVPINKPGDRIGKTYIEFDTDKVVAVVETNTADRNAPFKPVDDISKKIAGNFLDFLESEVAAGRLSYDGYIMQSGVGNVPNAVMAGLLESKFENIQAYTEVIQDGMVDLIDAGKMTVASATSFSLSPEYAEKMNNEAKRYRESIILRPQQISNHPEVIRRVGLIATNGLIEADIYGNVNSTNVSGSRVMNGIGGSGDFTRNGYISSFITPSEAKGGAISAIVPFASHIDHTEHDVMVVISEYGYADLRGLAPRERVAKMIGLAHPDYRPLLEEYYARATSGDNKYMQTPHDLATAFDFHINLAKNGSM | not soluble
MGHHHHHHSHMDTPENVLQMLEAHMQSYKGNDPLGEWERYIQWVEENFPENKEYLITLLEHLMKEFLDKKKYHNDPRFISYCLKFAEYNSDLHQFFEFLYNHGIGTLSSPLYIAWAGHLEAQGELQHASAVLQRGIQNQAEPREFLQQQYRLFQTRLTETHLPAQAR | not soluble
MTKCSIIIGIFLIAAINGQASKRRIQYESVSQFLFHNSKLCGDPFSDAVWLPVLDLCSIECEITSEYCVENEELTQQCKKLPEDCQALLRKAIKQIQRHIRSQKPVYL | not soluble
TPQSITRKVARYIPGTVEHLQEQQQYARKIRDVTAQKVDQFSNVFHALSESFATFYQASDEQTDDSEVDLFLSKITEHSCQTCYKKNRCWVQNFDKTYDLMKQVMLETEEKEYASNRRLKKEFQQYCSKSKQVEELIEDELAHHHAHLTLKKKVQDSRRLVAEQLLGVSEVMADFSREIKREREQHFLQEEQIIEALQHFGIEIQHVEIYSLEQGNIDIEMTIPFSGHGESEKIIAPMLSDILEEQILVKAEQHSPHPNGYSHVAFGSTKSYRVSTGAAHAAKGGGLVSGDSYSMMELGARKYAAAISDGMGNGARAHFESNETIKLLEKILESGIDEKIAIKTINSILSLRTTDEIYSTLDLSIIDLQDASCKFLKVGSTPSFIKRGDQVMKVQASNLPIGIINEFDVEVVSEQLKAGDLLIMMSDGIFEGPKHVENHDLWMKRKMKGLKTNDPQEIADLLMEEVIRTRSGQIEDDMTVVVVRIDHNTPKWASIPVPAIFQNKQEI | not soluble
GPLGSGALKWVLCNYDFQARNSSELSVKQRDVLEVLDDSRKWWKVRDPAGQEGYVPYNILTPYPAAAS | soluble
MAILIELQDICVDFEQRRVLDNIRLTLTKGNITTLIGPNGAGKSTLVKVILGLQSLSSGKIIRQSGIRIGYVPQKLKLNDTLPLTVNRFLKLAGRFSTQELSEALRLVGGEHLQSSDMHKLSGGETQRVLLARALLQRPDLLVLDEPAQGVDVQGQIDLYDLIHTLRNRFGCAVLMVSHDLHLVMAKTDEVICLQHHVCCSGSPESIAKHPSYLAMFGHRSRDTLAFYQHHHEHHHHDLSGLPVKGKASVCSHHSHGHHKHD | not soluble
FFFSGGVPLDASLFEHKKLDPTQVRQVLQLVLWKLESLRQWEKERITGCIQAVAEHLQLKLRDVMPLMFPAITGHASSVSVLDAMEILGADLSRYRLRQALELLGGASKKETKEWEKIRDAIPG | not soluble
MNGKPDLVITDSQVFKQVNAKLDRSVPLTSFSILMARYKGDLDKFYSGAKAIKNLKAGDKVLIAEACTHHQLKGDIAREKLPTWLEETCPGIIVHNCSGKDFPKNLNEYALVIHCGGCMFNKAEIMNRIGICDDALVPITNFGTSIAEINNILDRVMEPLKLEHHHHHH | not soluble
MTEFESTEDQKPTMLASLDHLSLRNWASPFEEASTPPTASDDSFQSSSEDNLSLRNWAPLSPNPETVKSAKSLRNYSTNPLIPSYICDLCESPKTSELRVAYDAATFQTTYSYSIIWDVEMNDVEHYRKVMETVSKSSANSSRSSFGYFFEARPGMCRLLRTLHNYATDTSQASLADYMIELSGRAPSPVVVKCGHYLCTACFDIVKNADGTYGCSSQQCYWKGSSRQESKKNYENDICRKQRAKALGMKDLGIDVKPASSASSNPIKETSDSSSETNCSLSSGPVSFNHTMLNSLTPVAEHSVAIMMVLVEPLEVYGIVHSYVEMSFPLDTNLAKALGVMLHRKKKILGDYVANGKLYFGFVNDDEKIGMRRIKSNYYDSLMVAEIPKFDDRVVLIFDVGDYVARGFKIYLK | not soluble
MAKMTTLKMKERLEKELQAPNRQFSYNRDNDALTVVQSGKKVTLAIPQIIANYENDGDAAVEKIVYYVEEGFRAAAGNVELENNKANVYPVVRATSFPGETKAGEVLLTDDHTAETKIFYAVDLGKSYRFIEESMLKKAQLTHEEIREAAFNNLANLEIPLKKDSVNGNDFYFVRTNDGYDASRLLNEAFLREMREKLTGEMVLAVPHQDVLIIGDIQDNTGYDVLAHMTMDFFADGLVPITSLPFVYNNGKLEPIFIMAKNRLKE | not soluble
MAHHHHHHMNIFDHQIKNVDKGNVVAILGAQWGDEGKGKIIDMLSEYSDITCRFNGGANAGHTISVNDKKYALHLLPCGVLYDNNISVLGNGMVIHVKSLMEEIESVGGKLLDRLYLSNKAHILFDIHQIIDSIQETKKLKEGKQIGTTKRGIGPCYSTKASRIGIRLGTLKNFENFKNMYSKLIDHLMDLYNITEYDKEKELNLFYNYHLKLRDRIVDVISFMNTNLENNKKVLIEGANAAMLDIDFGTYPYVTSSCTTVGGVFSGLGIHHKKLNLVVGVVKSYLTRVGCGPFLTELNNDVGQYLREKGHEYGTTTKRPRRCGWLDIPMLLYVKCINSIDMINLTKLDVLSGLEEILLCVNFKNKKTGELLEKGCYPVEEEISEEYEPVYEKFSGWKEDISTCNEFDELPENAKKYILAIEKYLKTPIVWIGVGPNRKNMIVKKNFNLN | soluble
STLQFKVGPPFELVRDYCPVVESHTGRTLDLRIIPRIDRGFDHIDEEWVGYKRNYFTLVSTFETANCDLDTFLKSSFDLLVEDSSVESRLRVQYFAIKIKAKNDDDDTEINLVQHTAKRDKGPQFCPSVCPLVPSPLPKHQIIREASNVRNITKTKKYDSTFYLHRNHVNYEEYGVDSLLFSYPEDSIQKVARYERVQFASSISVKKPFQQNKHFSLHVILGAVVDPDTFHGENPGIPYDELALKNGSKGMFVYLQEMKTPPLIIRGRSPSN | soluble
MGHVSNSPFSVDVLVVGGGPAGSAAAIHAAKAGYSVLLIDAQPFPRDKTCGDGLTPRAVHQLEALGVDVTSRYRSFGLKLHGFGGSVTVPWPESHFGQVSSAMPRMKFDAMLWEMAAQHATTWTATASEVEIDSAIRSVTMSDGRVVKPRSVIVADGVRSTFGKLLGRTWHRGEVYGIAARSYCTTPRSTEPWMHSHLELRDDSTTLPGYGWIFPIGDGTANVGCGALSTDKRPAKINTKKLLRHYASQQTDWEFGTPQRVASALLPMGGAVSTIAGPNWMLIGDAAACVNPLNGEGIDYGLETAALAVAHLDNPLEWPHILRETYGEAFLLARTAARLLTYPQFLPLTGPIALRTPLMASAARLMGNLVTEEDKDIVARAWRAAGWGVTKIRGGSPLWDLEHHHHHH | not soluble
SYPYLMLSGHQYPQMAYYRGTLKKPNQYFGPYPNSNAVRDSIQVLQKVFMLRTCEDSVFEHRDRPCLLYQIKRCTAPCVGHISEEDYRDSVREAATFLNGKTDELTRTLQHKMQTAAANLQFEEAARYRDQIQALGIMQSNQFIDSKNPNNPNDIDLLALAVSDGLVCVHWVSIRGGRHVGDKSFFPDTKNDPEPNGQDYAEAFVAQHYLGKSKPDIIISNFPVPDALKEALEGEHGKQMQFVTKTIGERKVRLKMAEQNAQMAIAQRRLQQSSQQHRIDELAKILGMDSDGLNRLECFDISHTQGEATIASCVVYDEQNIQPSQYRRYNITTAKPGDDYAAMREVLTRRYGKMQEAEANGETVKWPDAVLIDGGKGQIGVAVSVWEELGLHIPLVGIAKGPERKAGMEELILPFTGEVFRLPPNSPALHLLQTVRDESHRFAITGHRKKRDK | not soluble
MTFHYPNGIPYNHHEAQSPKKQVKKKRPVEFGNRGMDFEEAINQSNQYYLLNKQAVVHKKPTPVQIVKVDYPKRSAAVIKEAYFRQASTTDYNGVYQGRYIDFEAKETKNTTSFPFKNFHQHQIDHMEQCIAQQGICFVLLWFSSLKRCFFFSGENLITHWKNQAVTGKKSMPLALIEKEGIELSFGIAPRIPYLDAVEQYIQTH | not soluble
MSLKAFLHHLQNEAKLIISLTYCVDGEFALNEIARATLQQYGIVQLSSATNSDSETEAATSKAVKTAYDKAVEAKTTADGKVGLNGNESINGEKTFENRIVAKRNIRISDSPHYASRGDYLNIGANNGDCWFEYKLSNQEIGTLRMHANGDLTYKRQKIYLKMDCWQAIHKRKLKVFTAKRKKREGHHHHHH | not soluble
MTTMTIKNAMVLAAGLGTRMRPITDTIPKPLVKIAGKPMIDYALDALVEAGAETIVVNVHHHAEQMISHLGHRTDAEILISDERTQLMNSGGGLAKGLKLLKPGPVFVMNADLFWIGERLNAVSNLRKLAQFLDPARMDMALLCVDMDRTTGHNGKRDFNLAGEGKLTRYRDGDANPVVYAGAIAMDSRLLDDAPADAFNLNIYFDRAIEKDRLFGLSLDGHWITVGTPDAIDDAESIIRQFREKRFALEHHHHHH | not soluble
MGSDKIHHHHHHMAERVLVPTQIGRGDRYYTYTELLAISRRFKQNPNELMVTWILRVYDQGGPALSLNSGELGLLGDLTHDAIFNYRCKALRGAGCQTLLSWLLQAWRQRWESSLHFEATELPFRPWTTMEEGIQLVRELGMIEWIYLDPEGPVDLAPEDVAFTQGLQRRLLTAAPSELRLSLVSLLVRGMTVLEAVMEIQTIADVGLLWRQSHPGRTKLMLGPNPTRKDLLGWLLSHGVPREQVDRQPTKVLLELYIKEAKRSRGHPNYGLNEEQPPPPPYSDQACGEEQPVRHD | not soluble
MGSDKIHHHHHHMLKLCGFAASNYYNKVKLALLEKNVPFEEVLAWIGETDTTATPAGKVPYMITESGSLCESEVINEYLEAAYPQTPLLPRDPMQAGKVREIVTFLELYLELTARELYPEAFFGGKVSDNVKERQLKLLSRYVPAFAKLAKFSPYVAGDTFTLADCAAAVHLPLVSSCTKIIYGKDLLADLPVKEYLKTLSERPSVQKVNADRKANTELMLSRNK | not soluble
GSHMEVNLRMSWWGGNGRHQVTLKALEEFHKQHPNINVKAEYTGWDGHLSRLTTQIAGGTEPDVMQTNWNWLPIFSKDGTGFYNLFSVKEQLDLAQFDPKELQQTTVNGKLNGIPISVTARIFYFNDATWAKAGLEYPKTWDELLAAGKVFKEKLGDQYYPVVLEHQDTLALIRSYMTQKYNIPTIDEANKKFAYSPEQWVEFFTMYKTMVDNHVMPSTKYYASFGKSNMYEMKPWINGEWAGTYMWNSTITKYSDNLTKPAKLVLGPYPMLPGAKDAGLFFKPAQMLSIGKSTKHPQESAMLINFLLNSKEGVEALGLERGVPLSATAVTQLRASGVIKDEDPSVAGLNMALELPHKMTTSPYFDDPQIVSLFGDAIQYIDYGQKTVQETAEYFNKQGDRILKRAMR | soluble

Reference: the DeepSol protein solubility set
